Measurements published in paper PMC9813773, “LACC1 bridges NOS2 and polyamine metabolism in inflammatory macrophages” (Nature, 2022).
Residue numbers refer to the chain shown, from its start. In names and notes the source's numbering stands.

B1: hLACC1 (Homo sapiens) (protein)
chain: MAEAVLIDLFGLKLNSQKNCHQTLLKTLNAVQYHHAAKAKFLCIMCCSNISYERDGEQDNCEIETSNGLSALLEEFEIVSCPSMAATLYTIKQKIDEKNLSSIKVIVPRHRKTLMKAFIDQLFTDVYNFEFEDLQVTFRGGLFKQSIEINVITAQELRGIQNEIETFLRSLPALRGKLTIITSSLIPDIFIHGFTTRTGGISYIPTLSSFNLFSSSKRRDPKVVVQENLRRLANAAGFNVEKFYRIKTHHSNDIWIMGRKEPDSYDGITTNQRGVTIAALGADCIPIVFADPVKKACGVAHAGWKGTLLGVAMATVNAMIAEYGCSLEDIVVVLGPSVGPCCFTLPRESAEAFHNLHPACVQLFDSPNPCIDIRKATRILLEQGGILPQNIQDQNQDLNLCTSCHPDKFFSHVRDGLNFGTQIGFISIKE
notes: codon-optimized synthetic cDNA in pMAL-C5x (MBP fusion), E. coli BL21(DE3), amylose resin; tag cleavage not described
B2: hLACC1 (Homo sapiens; C284R) (protein)
chain: B1 chain with C284R
notes: as for B1
B3: hLACC1 (Homo sapiens; I254V) (protein)
chain: B1 chain with I254V
notes: as for B1
B4: hLACC1 (Homo sapiens; K38E) (protein)
chain: B1 chain with K38E
notes: as for B1
B5: mLACC1 (Mus musculus) (protein)
chain: MAEAVLIDLSGLQLNAQKNCHETLLETLDGIHYHHAPKAKFLCIICCRNASKEKDGEYGLCELEAGNGFSRLAGKFETVSHPCLAASLYTIKQKIDEENLSCIKVIVPEHRKLLMKAYVGQLFTEVYEFEFEDLQGAWRDSLLKPSTGINVTTTQELEDIQHEIETYLRSLPALKGDLTIVTSPLIPDNFLHGFTTRTGGISSVPTLSSLNLFSSSKRRDPKVVVQENVRRLANAAGFNAEKFYRIKTDHASEVWVMGKKEPESYDGIVTNQRGVTITALGADCIPIVFADPVKKACGVAHSGWKGTLLGVAMATVNAMIAEYGCDVEDIIVVLGPSVGSCCFTLPKESAVSFHSLHPSCVRHFDSPRPYVDIRKATRILLERGGILPQNIQDQKEDLDLCTSCHPEKFFSHVRDGLNFGTQIGFISLRE
notes: as for B1

Assays:
[1] = substrate: NC(=O)NCCC[C@H](N)C(=O)O; experiment: L-Orn formation by LC-QQQ-MS, Michaelis-Menten; format: biochemical, Homo sapiens; settings: 5-500 μM L-Cit, PBS pH 7.4, 1 μM ZnSO4, 37°C
[2] = substrate: NC(=O)NCCC[C@H](N)C(=O)O; experiment: L-Orn formation by LC-QQQ-MS, Michaelis-Menten; format: biochemical, Mus musculus; settings: 5-500 μM L-Cit, PBS pH 7.4, 1 μM ZnSO4, 37°C

Protein | Km [1] [µM] | kcat [1] [s⁻¹] | Km [2] [µM] | kcat [2] [s⁻¹]
B1 | 163.7 | 0.00567 | – | –
B2 | 155.8 | 0.00275 | – | –
B3 | 181.3 | 0.00433 | – | –
B4 | 81.58 | 0.0051 | – | –
B5 | – | – | 117.2 | 0.0055
